According to patent publication US11795460B2, “Compositions and methods for TTR gene editing and treating ATTR amyloidosis” (Intellia Therapeutics, Inc., priority 2017, dated 2023):
Strand notation (5' to 3'): a small letter for the sugar, then the base; units joined by * are phosphorothioate-linked, units joined directly phosphodiester-linked; [ ] holds rarer units or linkages, { } end groups; capitals alone tell only the bases. m = 2'-O-methyl; r = 2'-OH (RNA)

Key:
[1] = test system: off-target integration sites; experiment: Off-target oligo insertion based assay in primary human hepatocytes (Table 30); assay type: cell-based; settings: TTR sgRNAs in PHH, 100 ng Cas9 mRNA, 25 nM sgRNA, 12.5 nM donor oligo
Protocol: Off-target analysis of sgRNAs targeting TTR was performed in primary human hepatocytes (PHH) as described in Example 5, with the following modifications. PHH were plated at a density of 33,000 cells per well on collagen-coated 96-well plates as described in Example 1. Twenty-four hours post plating, cells were washed with media and transfected using Lipofectamine RNAiMAX (ThermoFisher, Cat. 13778150) as described in Example 1. Cells were transfected with a lipoplex containing 100 ng Cas9 mRNA, immediately followed by the addition of another lipoplex containing 25 nM of the sgRNA and 12.5 nM of the donor oligo (0.3 μL/well). Cells were lysed 48 hours post-transfection and gDNA was extracted and analyzed as further described in Example 5. The data is graphically represented in FIG. 20.
Fewer sites were detected in PHH for every guide tested as compared to the HekCas9 cell line, with no unique sites detected in PHH alone.

TTR = TTR editing in primary human hepatocytes transfected with Spy Cas9 mRNA and sgRNAs (Table 13); assay type: cell-based; settings: primary human hepatocytes co-transfected with Spy Cas9 mRNA (SEQ ID NO:2) and sgRNAs, 12.5 nM
Protocol: Primary liver hepatocytes. Primary human liver hepatocytes (PHH) and primary cynomolgus liver hepatocytes (PCH) (Gibco) were cultured per the manufacturer's protocol (Invitrogen, protocol 11.28.2012). In brief, the cells were thawed and resuspended in hepatocyte thawing medium with supplements (Gibco, Cat. CM7000) followed by centrifugation at 100 g for 10 minutes for human and 80 g for 4 minutes for cyno. The supernatant was discarded and the pelleted cells resuspended in hepatocyte plating medium plus supplement pack (Invitrogen, Cat. A1217601 and CM3000). Cells were counted and plated on Bio-coat collagen I coated 96-well plates (ThermoFisher, Cat. 877272) at a density of 33,000 cells/well for human or 60,000 cells/well for cyno (or 65,000 cells/well when assaying effects on TTR protein, described further below). Plated cells were allowed to settle and adhere for 6 or 24 hours in a tissue culture incubator at 37° C. and 5% CO2 atmosphere. After incubation cells were checked for monolayer formation and media was replaced with hepatocyte culture medium with serum-free supplement pack (Invitrogen, Cat. A1217601 and CM4000).
Lipofectamine RNAiMax (ThermoFisher, Cat. 13778150) based transfections were conducted as per the manufacturer's protocol. Cells were sequentially transfected with a lipoplex containing Spy Cas9 mRNA (100 ng), Lipofectamine RNAiMax (0.4 […]) and tracer RNA ([…]), Lipofectamine RNAiMax (0.4 μL/well) and OptiMem.
Transfected cells were harvested post-transfection at 24, 48, or 72 hours. The genomic DNA was extracted from each well of a 96-well plate using 50 μL/well BuccalAmp DNA Extraction solution (Epicentre, Cat. QE09050) per manufacturer's protocol. All DNA samples were subjected to PCR and subsequent NGS analyses, as described herein.
To quantitatively determine the efficiency of editing at the target location in the genome, sequencing was utilized to identify the presence of insertions and deletions introduced by gene editing.
Primers were designed around the target site within the gene of interest (e.g. TTR), and the genomic area of interest was amplified.
Additional PCR was performed per the manufacturer's protocols (Illumina) to add chemistry for sequencing. The amplicons were sequenced on an Illumina MiSeq instrument. The reads were aligned to a reference genome (e.g., the human reference genome (hg38), the cynomologus reference genome (mf5), the rat reference genome (rn6), or the mouse reference genome (mm10)) after eliminating those having low quality scores. The resulting files containing the reads were mapped to the reference genome (BAM files), where reads that overlapped the target region of interest were selected and the number of wild type reads versus the number of reads which contain an insertion, substitution, or deletion was calculated.
The editing percentage (e.g., the “editing efficiency” or “percent editing” or “indel frequency”) is defined as the total number of sequence reads with insertions/deletions (“indels”) or substitutions over the total number of sequence reads, including wild type.
Guides in modified sgRNA format targeting human and/or cyno TTR were delivered to primary human hepatocytes and primary cyno hepatocytes as described in Example 1. Percent editing was determined for crRNAs comprising each guide sequence across each cell type and the guide sequences were then rank ordered based on highest % edit. The screening data for the guide sequences in Table 2 in both cell lines are listed below (Table 12 through 15).

| Molecule | # Sites in PHH [1] | Avg % Deletion (TTR) [%] | Avg % Edit (TTR) [%] | Avg % Insert (TTR) [%] |
| --- | --- | --- | --- | --- |
| G000491: TTR sgRNA modified sequence, Human, SEQ ID No. 98; guide sequence of CR003338 (nucleic acid) guide: mA*mU*mA*rCrCrArGrUrCrCrArGrCrArArGrGrCrArGrGrUrUrUrUrArGrAmGmCmUmAmGmAmAmAmUmAmGmCrArArGrUrUrArArArArUrArArGrGrCrUrArGrUrCrCrGrUrUrArUrCrAmAmCmUmUmGmAmAmAmAmAmGmUmGmGmCmAmCmCmGmAmGmUmCmGmGmUmGmCmU*mU*mU*mU | 7 | 3.60 | 45.93 | 42.42 |
| G000492: TTR sgRNA modified sequence, Human, SEQ ID No. 99; guide sequence of CR003342 (nucleic acid) guide: mC*mU*mU*rCrUrCrUrArCrArCrCrCrArGrGrGrCrArCrGrUrUrUrUrArGrAmGmCmUmAmGmAmAmAmUmAmGmCrArArGrUrUrArArArArUrArArGrGrCrUrArGrUrCrCrGrUrUrArUrCrAmAmCmUmUmGmAmAmAmAmAmGmUmGmGmCmAmCmCmGmAmGmUmCmGmGmUmGmCmU*mU*mU*mU | 5 | 2.22 | 34.65 | 32.45 |
| G000493: TTR sgRNA modified sequence, Human, SEQ ID No. 100; guide sequence of CR003368 (nucleic acid) guide: mA*mA*mG*rUrGrCrCrUrUrCrCrArGrUrArArGrArUrUrGrUrUrUrUrArGrAmGmCmUmAmGmAmAmAmUmAmGmCrArArGrUrUrArArArArUrArArGrGrCrUrArGrUrCrCrGrUrUrArUrCrAmAmCmUmUmGmAmAmAmAmAmGmUmGmGmCmAmCmCmGmAmGmUmCmGmGmUmGmCmU*mU*mU*mU | 1 | 0.97 | 11.55 | 10.65 |
| G000495: TTR sgRNA modified sequence, Human, SEQ ID No. 102; guide sequence of CR003343 (nucleic acid) guide: mC*mA*mG*rArGrGrArCrArCrUrUrGrGrArUrUrCrArCrGrUrUrUrUrArGrAmGmCmUmAmGmAmAmAmUmAmGmCrArArGrUrUrArArArArUrArArGrGrCrUrArGrUrCrCrGrUrUrArUrCrAmAmCmUmUmGmAmAmAmAmAmGmUmGmGmCmAmCmCmGmAmGmUmCmGmGmUmGmCmU*mU*mU*mU | 1 | 4.45 | 47.77 | 43.40 |
| G000496: TTR sgRNA modified sequence, Human, SEQ ID No. 103; guide sequence of CR005304 (nucleic acid) guide: mG*mG*mC*rCrGrUrGrCrArUrGrUrGrUrUrCrArGrArArGrUrUrUrUrArGrAmGmCmUmAmGmAmAmAmUmAmGmCrArArGrUrUrArArArArUrArArGrGrCrUrArGrUrCrCrGrUrUrArUrCrAmAmCmUmUmGmAmAmAmAmAmGmUmGmGmCmAmCmCmGmAmGmUmCmGmGmUmGmCmU*mU*mU*mU | 0 | 52.25 | 63.30 | 11.08 |
| G000497: TTR sgRNA modified sequence, Human, SEQ ID No. 104; guide sequence of CR003335 (nucleic acid) guide: mC*mU*mG*rCrUrCrCrUrCrCrUrCrUrGrCrCrUrUrGrCrGrUrUrUrUrArGrAmGmCmUmAmGmAmAmAmUmAmGmCrArArGrUrUrArArArArUrArArGrGrCrUrArGrUrCrCrGrUrUrArUrCrAmAmCmUmUmGmAmAmAmAmAmGmUmGmGmCmAmCmCmGmAmGmUmCmGmGmUmGmCmU*mU*mU*mU | 3 | 5.85 | 40.33 | 34.48 |
| G000498: TTR sgRNA modified sequence, Human, SEQ ID No. 105; guide sequence of CR003359 (nucleic acid) guide: mA*mG*mU*rGrArGrUrCrUrGrGrArGrArGrCrUrGrCrArGrUrUrUrUrArGrAmGmCmUmAmGmAmAmAmUmAmGmCrArArGrUrUrArArArArUrArArGrGrCrUrArGrUrCrCrGrUrUrArUrCrAmAmCmUmUmGmAmAmAmAmAmGmUmGmGmCmAmCmCmGmAmGmUmCmGmGmUmGmCmU*mU*mU*mU | 19 | 14.90 | 60.02 | 45.20 |
| G000500: TTR sgRNA modified sequence, Human, SEQ ID No. 107; guide sequence of CR003337 (nucleic acid) guide: mC*mC*mA*rGrUrCrCrArGrCrArArGrGrCrArGrArGrGrGrUrUrUrUrArGrAmGmCmUmAmGmAmAmAmUmAmGmCrArArGrUrUrArArArArUrArArGrGrCrUrArGrUrCrCrGrUrUrArUrCrAmAmCmUmUmGmAmAmAmAmAmGmUmGmGmCmAmCmCmGmAmGmUmCmGmGmUmGmCmU*mU*mU*mU | 12 | 3.10 | 35.50 | 32.47 |
| G000501: TTR sgRNA modified sequence, Human, SEQ ID No. 108; guide sequence of CR005300 (nucleic acid) guide: mU*mC*mA*rCrArGrArArArCrArCrUrCrArCrCrGrUrArGrUrUrUrUrArGrAmGmCmUmAmGmAmAmAmUmAmGmCrArArGrUrUrArArArArUrArArGrGrCrUrArGrUrCrCrGrUrUrArUrCrAmAmCmUmUmGmAmAmAmAmAmGmUmGmGmCmAmCmCmGmAmGmUmCmGmGmUmGmCmU*mU*mU*mU | 0 | 6.62 | 40.32 | 33.82 |
| G000567: TTR sgRNA modified sequence, Human, SEQ ID No. 109; guide sequence of CR003352 (nucleic acid) guide: mG*mA*mA*rArGrGrCrUrGrCrUrGrArUrGrArCrArCrCrGrUrUrUrUrArGrAmGmCmUmAmGmAmAmAmUmAmGmCrArArGrUrUrArArArArUrArArGrGrCrUrArGrUrCrCrGrUrUrArUrCrAmAmCmUmUmGmAmAmAmAmAmGmUmGmGmCmAmCmCmGmAmGmUmCmGmGmUmGmCmU*mU*mU*mU | 0 | 10.02 | 27.28 | 17.35 |
| G000568: TTR sgRNA modified sequence, Human, SEQ ID No. 110; guide sequence of CR003391 (nucleic acid) guide: mG*mG*mC*rUrGrUrCrGrUrCrArCrCrArArUrCrCrCrArGrUrUrUrUrArGrAmGmCmUmAmGmAmAmAmUmAmGmCrArArGrUrUrArArArArUrArArGrGrCrUrArGrUrCrCrGrUrUrArUrCrAmAmCmUmUmGmAmAmAmAmAmGmUmGmGmCmAmCmCmGmAmGmUmCmGmGmUmGmCmU*mU*mU*mU | 11 | 0.80 | 43.75 | 43.00 |
| G000570: TTR sgRNA modified sequence, Human, SEQ ID No. 111; guide sequence of CR003347 (nucleic acid) guide: mC*mA*mU*rUrGrArUrGrGrCrArGrGrArCrUrGrCrCrUrGrUrUrUrUrArGrAmGmCmUmAmGmAmAmAmUmAmGmCrArArGrUrUrArArArArUrArArGrGrCrUrArGrUrCrCrGrUrUrArUrCrAmAmCmUmUmGmAmAmAmAmAmGmUmGmGmCmAmCmCmGmAmGmUmCmGmGmUmGmCmU*mU*mU*mU | 1 | 0.35 | 68.42 | 68.08 |
| G000571: TTR sgRNA modified sequence, Human, SEQ ID No. 112; guide sequence of CR005301 (nucleic acid) guide: mG*mU*mC*rArCrArGrArArArCrArCrUrCrArCrCrGrUrGrUrUrUrUrArGrAmGmCmUmAmGmAmAmAmUmAmGmCrArArGrUrUrArArArArUrArArGrGrCrUrArGrUrCrCrGrUrUrArUrCrAmAmCmUmUmGmAmAmAmAmAmGmUmGmGmCmAmCmCmGmAmGmUmCmGmGmUmGmCmU*mU*mU*mU | 1 | 6.13 | 20.47 | 14.47 |
